Measurements: patent US20090022714A1, “Combination methods of inhibiting tumor growth with a vascular endothelial growth factor receptor antagonist” (ImClone Systems, Inc., priority 2001, published 2009)

Key:
[1] = system: KDR (VEGFR-2)-expressing HUVEC; assay: FACS analysis of c-p1C11 on HUVEC; type: binding, human; settings: 5 μg/ml
Method: Early passage HUVEC cells were grown in growth factor-depleted EBM-2 medium overnight to induce the expression of KDR (VEGFR-2). The cells were harvested and washed three times with PBS, incubated with c-p1C11 IgG (5 μg/ml) for 1 h at 4° C., followed by incubation with a FITC labeled rabbit anti-human Fc antibody (Capper, Organon Teknika Corp., West Chester, Pa.) for an additional 60 min. The cells were washed and analyzed by a flow cytometer (Model EPICS®, Coulter Corp., Edison, N.J.).

[2] = biological target: T1, KDR (VEGFR-2) binding to VEGF (Homo sapiens, UniProt P35968); assay: Competitive VEGF binding assay, first assay (KDR-AP to immobilized VEGF165); settings: FIG. 22
T1 construct: the cDNA for KDR (VEGFR-2) extracellular domain is fused in-frame with the cDNA for human placental AP; made in house; host or cells: stably transfected NIH 3T3 cells, purified from supernatant on anti-AP antibody
Method: In the first assay, various amounts of antibodies were mixed with a fixed amount of KDR (VEGFR-2)-AP (50 ng) and incubated at room temperature for 1 h.

[3] = biological target: T2, immobilized KDR (VEGFR-2) receptor (Homo sapiens, UniProt P35968); assay: Competitive VEGF binding assay, second assay (radiolabeled VEGF165 to immobilized KDR); settings: FIG. 23
T2 construct: the cDNA for KDR (VEGFR-2) extracellular domain is fused in-frame with the cDNA for human placental AP; human placental alkaline phosphatase (AP), inferred for these assays; made in house; host or cells: NIH 3T3 (inferred: the only KDR protein whose making is described)

p44/p42 MAP kinases = assay: MAP kinase phosphorylation assay in HUVEC (chimeric IgG); type: cell-based, human
Method: (§1) Subconfluent HUVEC cells were grown in growth factor depleted EBM-2 medium for 24 to 48 h prior to experimentation. […] The cells were then lysed in lysis buffer ([…], 150 mM NaCl, 1% NP-40, 2 mM EDTA, 0.25% sodium deoxycholate, 1 mM PMSF, 1 μg/ml leupeptin, 1 μg/ml pepstatin, 10 μg/ml aprotinin, pH 7.5) and the cell lysate used for both the KDR (VEGFR-2) and MAP kinase phosphorylation assays. The KDR (VEGFR-2) receptor was immunoprecipitated from the cell lysates with Protein A Sepharose beads (Santa Cruz Biotechnology, Inc., CA) coupled to an anti-KDR (VEGFR-2) antibody, Mab 4.13 (ImClone Systems). Proteins were resolved with SDS-PAGE and subjected to Western blot analysis. To detect KDR (VEGFR-2) phosphorylation, blots were probed with an antiphosphotyrosine Mab, PY20 (ICN Biomedicals, Inc. Aurora, Ohio). For the MAP kinase activity assay, cell lysates were resolved with SDS-PAGE followed by Western blot analysis using a phospho-specific MAP kinase antibody (New England BioLabs, Beverly, Mass.). All signals were detected using ECL (Amersham, Arlington Heights, Ill.). In both assays, the blots were reprobed with a polyclonal anti-KDR (VEGFR-2) antibody (ImClone Systems) to assure that equal amount of protein was loaded in each lane of SDS-PAGE gels.

HUVEC = assay: Anti-mitogenic assay, [3H]-TdR, HUVEC (chimeric IgG and scFv); type: cell-based, human; settings: FIG. 24
Method: The effect of anti-KDR (VEGFR-2) antibodies on VEGF-stimulated mitogenesis of human endothelial cells was determined with a [^3H]-TdR DNA incorporation assay using HUVEC. […] After 18 hours of incubation, 0.25 μCi of [^3H]-TdR was added to each well and incubated for an additional 4 hours. DNA incorporated radioactivity was determined with a scintillation counter. The data shown in FIG. 24 are representative of at least three separate experiments.

KDR (VEGFR-2) [4] = biological target: T3, KDR (VEGFR-2) (Homo sapiens, UniProt P35968); assay: KDR phosphorylation assay in HUVEC (chimeric IgG); type: cell-based; set-up: endogenous in cells; host or cells: HUVEC, early passage
Method: as §1
Target sequence in this assay (P35968 20-1356): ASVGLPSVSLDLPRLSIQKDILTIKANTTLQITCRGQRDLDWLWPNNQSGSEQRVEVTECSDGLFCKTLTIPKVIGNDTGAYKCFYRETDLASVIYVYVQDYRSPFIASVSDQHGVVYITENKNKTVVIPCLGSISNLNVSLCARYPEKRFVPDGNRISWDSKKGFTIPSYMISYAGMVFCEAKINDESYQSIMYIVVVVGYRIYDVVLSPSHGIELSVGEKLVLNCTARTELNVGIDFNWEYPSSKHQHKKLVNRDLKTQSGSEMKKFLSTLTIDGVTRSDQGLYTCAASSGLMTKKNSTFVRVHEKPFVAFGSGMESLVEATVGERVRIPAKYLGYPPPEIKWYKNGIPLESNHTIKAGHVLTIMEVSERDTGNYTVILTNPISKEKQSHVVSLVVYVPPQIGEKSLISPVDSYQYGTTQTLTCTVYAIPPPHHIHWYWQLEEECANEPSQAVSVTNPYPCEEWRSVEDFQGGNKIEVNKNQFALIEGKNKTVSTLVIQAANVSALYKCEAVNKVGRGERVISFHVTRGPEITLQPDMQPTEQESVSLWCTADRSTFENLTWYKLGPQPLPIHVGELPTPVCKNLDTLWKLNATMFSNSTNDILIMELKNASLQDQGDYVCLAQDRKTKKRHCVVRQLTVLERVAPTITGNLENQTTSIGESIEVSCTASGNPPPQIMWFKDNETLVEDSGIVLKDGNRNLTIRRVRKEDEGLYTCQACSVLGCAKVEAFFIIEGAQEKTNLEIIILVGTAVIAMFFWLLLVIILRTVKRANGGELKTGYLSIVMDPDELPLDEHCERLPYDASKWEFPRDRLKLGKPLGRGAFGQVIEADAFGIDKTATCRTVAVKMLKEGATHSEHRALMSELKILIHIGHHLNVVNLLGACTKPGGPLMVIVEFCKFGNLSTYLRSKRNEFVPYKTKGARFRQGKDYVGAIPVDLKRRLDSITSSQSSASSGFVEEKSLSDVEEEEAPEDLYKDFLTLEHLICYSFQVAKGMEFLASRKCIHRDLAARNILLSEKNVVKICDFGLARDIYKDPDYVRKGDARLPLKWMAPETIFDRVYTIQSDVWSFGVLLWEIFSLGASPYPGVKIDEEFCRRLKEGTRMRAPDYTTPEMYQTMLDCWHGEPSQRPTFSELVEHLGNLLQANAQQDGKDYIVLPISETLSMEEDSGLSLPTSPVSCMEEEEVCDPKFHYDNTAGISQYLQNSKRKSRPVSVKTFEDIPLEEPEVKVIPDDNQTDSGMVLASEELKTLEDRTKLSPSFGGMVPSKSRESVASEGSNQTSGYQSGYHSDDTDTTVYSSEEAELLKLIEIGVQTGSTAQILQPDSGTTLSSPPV

KDR (VEGFR-2) [5] = biological target: T3, KDR (VEGFR-2); assay: Quantitative KDR binding assay (chimeric IgG and scFv); set-up: the cDNA for KDR (VEGFR-2) extracellular domain is fused in-frame with the cDNA for human placental AP; made in house; host or cells: stably transfected NIH 3T3 cells, purified from supernatant on anti-AP antibody; settings: ELISA, FIG. 20
Method: Various amounts of antibodies were added to KDR (VEGFR-2)-coated 96-well Maxi-sorp microtiter plates (Nunc. Danmark) and incubated at room temperature for 1 h, after which the plates were washed 3 times with PBS containing 0.1% Tween-20. The plates were then incubated at RT for 1 h with 100 ul of mouse anti-E tag antibody-HRP conjugate (Pharmacia Biotech) for the scFv, or rabbit anti-human IgG Fc specific antibody-HRP conjugate (Cappel, Organon Teknika Corp.) for the chimeric IgG. The plates were washed 5 times, TMB peroxidase substrate (KPL, Gaithersburg, Md.) added, and the OD at 450 nm read using a microplate reader (Molecular Device, Sunnyvale, Calif.).
Target sequence in this assay (P35968 20-764 limits assumed): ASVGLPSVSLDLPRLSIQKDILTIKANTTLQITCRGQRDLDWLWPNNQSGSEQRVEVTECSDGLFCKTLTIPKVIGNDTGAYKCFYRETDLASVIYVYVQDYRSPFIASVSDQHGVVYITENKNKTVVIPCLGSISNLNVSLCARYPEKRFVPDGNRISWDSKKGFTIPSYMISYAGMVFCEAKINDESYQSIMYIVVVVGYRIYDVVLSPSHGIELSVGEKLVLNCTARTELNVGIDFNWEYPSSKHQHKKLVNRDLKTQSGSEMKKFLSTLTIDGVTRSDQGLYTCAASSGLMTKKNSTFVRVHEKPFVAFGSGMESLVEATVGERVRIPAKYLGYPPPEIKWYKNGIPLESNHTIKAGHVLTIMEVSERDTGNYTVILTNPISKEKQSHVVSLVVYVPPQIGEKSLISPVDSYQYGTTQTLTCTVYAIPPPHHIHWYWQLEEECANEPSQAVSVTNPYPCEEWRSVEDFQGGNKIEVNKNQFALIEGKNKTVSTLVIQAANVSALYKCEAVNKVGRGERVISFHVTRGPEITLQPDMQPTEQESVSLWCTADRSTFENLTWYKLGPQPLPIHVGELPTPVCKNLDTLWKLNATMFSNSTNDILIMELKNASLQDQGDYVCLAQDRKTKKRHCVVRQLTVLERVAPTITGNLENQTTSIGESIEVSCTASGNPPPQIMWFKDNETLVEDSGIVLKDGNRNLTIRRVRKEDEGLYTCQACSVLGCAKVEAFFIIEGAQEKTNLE

KDR (VEGFR-2) [6] = biological target: T3, KDR (VEGFR-2); assay: BIAcore analysis of p1C11 scFv, c-p1C11 and VEGF; type: binding; set-up: the cDNA for KDR (VEGFR-2) extracellular domain is fused in-frame with the cDNA for human placental AP; made in house; host or cells: stably transfected NIH 3T3 cells, purified from supernatant on anti-AP antibody; settings: BIAcore, Table 2
Method: The binding kinetics of antibodies to KDR (VEGFR-2) were measured using BIAcore biosensor (Pharmacia Biosensor). […] Sensorgrams were obtained at each concentration and were evaluated using a program, BIA Evaluation 2.0, to determine the rate constants kon and koff. Kd was calculated as the ratio of rate constants koff/kon.
Target sequence in this assay (P35968 20-764 limits assumed): as above

[7] = system: KDR (VEGFR-2), KDR (VEGFR-2)(1-3), KDR (VEGFR-2)(3); assay: Binding epitope mapping with KDR Ig-domain deletion variants; set-up: species or system human
Method: The production of KDR (VEGFR-2) extracellular Ig-like domain deletion variants has been previously described (Lu et al. (2000)). In an epitope-mapping assay, full length KDR (VEGFR-2)-AP, Ap fusions of two KDR (VEGFR-2) Ig-domain deletion variants, and Flk-1-AP were first immobilized onto a 96-well plate (Nunc) using a rabbit anti-AP antibody (DAKO-immunoglobulins, Glostrup, Denmark) as the capture reagent. The plate was then incubated with various anti-KDR (VEGFR-2) Fab proteins at RT for 1 h, followed by incubation with a rabbit anti-human Fab antibody-HRP conjugate. The plate was washed and developed as described above.

KDR (VEGFR-2) [8] = biological target: T3, KDR (VEGFR-2); assay: Direct binding assay of Fab to KDR; set-up: the cDNA for KDR (VEGFR-2) extracellular domain is fused in-frame with the cDNA for human placental AP; made in house; host or cells: stably transfected NIH 3T3 cells, purified from supernatant on anti-AP antibody
Method: In a direct binding assay, various amounts of soluble Fab proteins were added to KDR (VEGFR-2)-coated 96-well Maxi-sorp microtiter plates and incubated at RT for 1 h, after which the plates were washed 3 times with PBST. The plates were then incubated at RT for 1 h with 100 Φl of a rabbit anti-human Fab antibody-HRP conjugate (Jackson ImmunoResearch Laboratory Inc., West Grove, Pa.). The plates were washed and developed following the procedure described above for the phage ELISA. […] Absorbance at 405 nm was measured to quantify the bound KDR (VEGFR-2)-AP molecules (8).
Target sequence in this assay (P35968 20-764 limits assumed): as above

KDR (VEGFR-2) [9] = biological target: T3, KDR (VEGFR-2); assay: BIAcore analysis of soluble Fab; type: binding; set-up: the cDNA for KDR (VEGFR-2) extracellular domain is fused in-frame with the cDNA for human placental AP; made in house; host or cells: stably transfected NIH 3T3 cells, purified from supernatant on anti-AP antibody; settings: mean±SE
Method: The binding kinetics of soluble Fab proteins to KDR (VEGFR-2) were measured by surface plasmon resonance using a BIAcore biosensor (Pharmacia Biosensor). KDR (VEGFR-2)-AP fusion protein was immobilized onto a sensor chip and soluble Fab proteins were injected at concentrations ranging from 1.5 nM to 100 nM. Sensorgrams were obtained at each concentration and were evaluated using a program, BIA Evaluation 2.0, to determine the rate constants kon and koff Kd was calculated from the ratio of rate constants koff/kon.
Target sequence in this assay (P35968 20-764 limits assumed): as above

T2 sequence (P35968 20-764 limits assumed): as above
T1 sequence (P35968 20-764 limits assumed): as above
Chain of KDR (VEGFR-2), KDR (VEGFR-2)(1-3), KDR (VEGFR-2)(3) (P35968 224-327 limits assumed): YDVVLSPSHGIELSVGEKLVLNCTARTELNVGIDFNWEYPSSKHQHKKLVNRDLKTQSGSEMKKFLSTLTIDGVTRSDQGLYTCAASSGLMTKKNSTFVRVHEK

Row | Molecule | binding to KDR expressed on early passage HUVEC [1] | blocking of KDR binding to immobilized VEGF [2] | competition with 125I labeled VEGF for binding to immobilized KDR [3] | inhibition of FGF-stimulated activation of p44/p42 MAP kinases (p44/p42 MAP kinases; FGF 10 ng/ml, not shown) | inhibition of VEGF-stimulated activation of p44/p42 MAP kinases (p44/p42 MAP kinases; VEGF165 20 ng/ml) | inhibitory effect on VEGF-stimulated mitogenesis of HUVEC (HUVEC) | inhibition of VEGF-stimulated phosphorylation (activation) of KDR receptor (KDR (VEGFR-2) [4]; VEGF165 20 ng/ml) | effect of antibody alone on activity of KDR receptor and p44/p42 MAP kinases (KDR (VEGFR-2) [4]; without VEGF) | direct binding to immobilized KDR (KDR (VEGFR-2) [5]) | direct binding to immobilized KDR (KDR (VEGFR-2) [5]; listed as C-p1C11) | koff (KDR (VEGFR-2) [6]) | kon (KDR (VEGFR-2) [6]) | location of binding epitope(s) [7] | efficiency of binding to KDR (KDR (VEGFR-2) [8]) | koff (KDR (VEGFR-2) [9]) | kon (KDR (VEGFR-2) [9])
1 | c-p1C11: chimeric p1C11 IgG1: p1C11 variable domains with human κ and γ1 constant regions (antibody, V domains shown) VH: QVKLQQSGAELVGSGASVKLSCTTSGFNIKDFYMHWVKQRPEQGLEWIGWIDPENGDSDYAPKFQGKATMTADSSSNTAYLQLSSLTSEDTAVYYCNAYYGDYEGYWGQGTTVTVSS VL: DIELTQSPAIMSASPGEKVTITCSASSSVSYMHWFQQKPGTSPKLWIYSTSNLASGVPARFSGSGSGTSYSLTISRMEAEDAATYYCQQRSSYPFTFGSGTKLEIK | binds specifically to KDR (VEGFR-2) expressed on early passage HUVEC | block KDR (VEGFR-2) receptor from binding to immobilized VEGF in a dose-dependent manner | efficiently compete | does not inhibit | effectively inhibits | effectively inhibit mitogenesis of HUVEC stimulated by VEGF | effectively inhibits | Neither c-p1C11, nor C225 alone has any effects | binds more efficiently to immobilized KDR (VEGFR-2) than the parent scFv | bind more efficiently to immobilized KDR (VEGFR-2) receptor than the parent scFv | 0.52 10^−4 s^−1 | 0.63 10^5 M^−1s^−1 | – | – | – | –
2 | D2H2: human anti-KDR (VEGFR-2) VEGF-blocking Fab clone (antibody, V domains shown) VH: EVQLVQSGGGLVKPGGSLRLSCAASGFTFSSYSMNWVRQAPGKGLEWVSSISSSSSYIYYADSVKGRFTISRDNAKDSLYLQMNSLRAEDTAVYYCARVTDAFDIWGQGTMVTVSS VL: DIQLTQSPSSVSASVGDRVTITCRASQGISSRLAWYQQKPGKAPKLLIYAASSLQTGVPSRFSGSGSGTDFTLTISSLQPEDFATYYCQQANRFPPTFGPGTKVDIK | – | – | – | – | – | – | – | – | – | – | – | – | broader binding epitope(s) within KDR (VEGFR-2) Ig domains 1 to 3 | more efficient binders | 4.87 ± 0.18 10^−4 S^−1 | 12.4 ± 2.9 10^4 M^−1S^−1
